Source: PMC13376213, “Systematic discovery of motif-based interactions of the auxiliary domains of USP family deubiquitinases” (Nature Communications, 2026)

How the values were obtained:
[1] = target: USP20 zf-UBP domain, tag cleaved (for FP) (human); experiment: fluorescence polarisation; displacement: unlabeled peptide titrated into the domain (at two-fold the KD of the FITC-labeled peptide) with 10 nM FITC-labeled peptide; 50 mM phosphate buffer pH 7.4, DTT, room temperature; estimated KD
[2] = target: USP33 zf-UBP domain, tag cleaved (for FP) (human) (UniProt Q8TEY7); experiment: as above
Sequence of USP33 zf-UBP domain, tag cleaved (for FP) (human) (Q8TEY7 whole entry, the tested form may be a part): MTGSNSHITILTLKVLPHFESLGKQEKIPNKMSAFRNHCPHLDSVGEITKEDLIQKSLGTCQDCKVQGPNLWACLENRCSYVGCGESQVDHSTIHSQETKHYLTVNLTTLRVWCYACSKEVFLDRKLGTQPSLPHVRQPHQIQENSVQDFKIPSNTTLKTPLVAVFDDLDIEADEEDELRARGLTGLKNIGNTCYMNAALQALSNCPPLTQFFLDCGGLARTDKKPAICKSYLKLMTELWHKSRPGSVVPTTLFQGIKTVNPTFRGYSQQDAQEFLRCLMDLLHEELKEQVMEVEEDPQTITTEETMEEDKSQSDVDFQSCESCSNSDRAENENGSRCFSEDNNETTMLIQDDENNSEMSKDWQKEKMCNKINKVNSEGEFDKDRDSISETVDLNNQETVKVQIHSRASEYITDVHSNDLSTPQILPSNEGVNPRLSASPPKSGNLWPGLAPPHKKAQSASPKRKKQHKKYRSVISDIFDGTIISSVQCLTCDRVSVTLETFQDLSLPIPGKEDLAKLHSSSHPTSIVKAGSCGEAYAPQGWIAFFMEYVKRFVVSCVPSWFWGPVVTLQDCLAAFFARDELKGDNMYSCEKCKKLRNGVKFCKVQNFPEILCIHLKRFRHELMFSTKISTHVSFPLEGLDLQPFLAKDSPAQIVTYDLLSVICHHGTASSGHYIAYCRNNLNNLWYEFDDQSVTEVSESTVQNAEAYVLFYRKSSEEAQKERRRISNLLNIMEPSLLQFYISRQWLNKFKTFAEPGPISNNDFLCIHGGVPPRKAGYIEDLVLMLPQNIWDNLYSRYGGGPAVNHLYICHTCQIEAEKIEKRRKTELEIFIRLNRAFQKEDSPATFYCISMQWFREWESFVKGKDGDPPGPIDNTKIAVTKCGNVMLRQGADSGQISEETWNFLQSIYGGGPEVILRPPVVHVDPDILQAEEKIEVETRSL

[3] = target: USP11 DUSP-UBL tandem domain (human) (UniProt P51784); experiment: fluorescence polarisation; displacement: serial dilution of the unlabelled peptide against the domain (at two-fold the KD of the FITC-labelled peptide) in complex with 10 nM FITC-labelled peptide; 50 mM phosphate buffer pH 7.4; room temperature; three technical replicates; sigmoidal dose-response fit
Sequence of USP11 DUSP-UBL tandem domain (human) (P51784 whole entry, the tested form may be a part): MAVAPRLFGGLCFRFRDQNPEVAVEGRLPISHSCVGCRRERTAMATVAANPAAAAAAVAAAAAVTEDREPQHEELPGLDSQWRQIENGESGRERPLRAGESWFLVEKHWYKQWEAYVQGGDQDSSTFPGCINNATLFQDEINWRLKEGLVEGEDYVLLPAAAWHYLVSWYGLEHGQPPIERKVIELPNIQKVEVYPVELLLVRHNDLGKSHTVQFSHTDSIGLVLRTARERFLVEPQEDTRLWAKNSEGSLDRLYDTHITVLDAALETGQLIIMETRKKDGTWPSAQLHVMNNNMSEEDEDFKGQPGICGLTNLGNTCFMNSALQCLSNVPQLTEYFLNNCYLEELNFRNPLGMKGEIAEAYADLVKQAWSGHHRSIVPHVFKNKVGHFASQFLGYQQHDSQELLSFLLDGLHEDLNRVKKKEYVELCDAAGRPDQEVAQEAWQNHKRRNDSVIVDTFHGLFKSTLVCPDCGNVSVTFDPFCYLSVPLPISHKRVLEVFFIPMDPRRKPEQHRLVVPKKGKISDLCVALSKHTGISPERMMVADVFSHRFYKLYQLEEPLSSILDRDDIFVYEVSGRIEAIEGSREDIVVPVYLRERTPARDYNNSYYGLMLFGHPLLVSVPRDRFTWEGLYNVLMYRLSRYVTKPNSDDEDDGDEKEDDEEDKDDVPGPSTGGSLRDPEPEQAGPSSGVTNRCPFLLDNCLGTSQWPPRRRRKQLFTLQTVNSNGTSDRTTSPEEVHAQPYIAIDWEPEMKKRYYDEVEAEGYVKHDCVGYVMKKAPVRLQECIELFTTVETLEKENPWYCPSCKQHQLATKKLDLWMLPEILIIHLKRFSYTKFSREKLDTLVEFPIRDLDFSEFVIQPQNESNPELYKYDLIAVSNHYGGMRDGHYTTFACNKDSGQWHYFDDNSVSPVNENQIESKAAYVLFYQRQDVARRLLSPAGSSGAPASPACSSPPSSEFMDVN

Sequence of USP20 zf-UBP domain, tag cleaved (for FP) (human) (Q9Y2K6 whole entry, the tested form may be a part): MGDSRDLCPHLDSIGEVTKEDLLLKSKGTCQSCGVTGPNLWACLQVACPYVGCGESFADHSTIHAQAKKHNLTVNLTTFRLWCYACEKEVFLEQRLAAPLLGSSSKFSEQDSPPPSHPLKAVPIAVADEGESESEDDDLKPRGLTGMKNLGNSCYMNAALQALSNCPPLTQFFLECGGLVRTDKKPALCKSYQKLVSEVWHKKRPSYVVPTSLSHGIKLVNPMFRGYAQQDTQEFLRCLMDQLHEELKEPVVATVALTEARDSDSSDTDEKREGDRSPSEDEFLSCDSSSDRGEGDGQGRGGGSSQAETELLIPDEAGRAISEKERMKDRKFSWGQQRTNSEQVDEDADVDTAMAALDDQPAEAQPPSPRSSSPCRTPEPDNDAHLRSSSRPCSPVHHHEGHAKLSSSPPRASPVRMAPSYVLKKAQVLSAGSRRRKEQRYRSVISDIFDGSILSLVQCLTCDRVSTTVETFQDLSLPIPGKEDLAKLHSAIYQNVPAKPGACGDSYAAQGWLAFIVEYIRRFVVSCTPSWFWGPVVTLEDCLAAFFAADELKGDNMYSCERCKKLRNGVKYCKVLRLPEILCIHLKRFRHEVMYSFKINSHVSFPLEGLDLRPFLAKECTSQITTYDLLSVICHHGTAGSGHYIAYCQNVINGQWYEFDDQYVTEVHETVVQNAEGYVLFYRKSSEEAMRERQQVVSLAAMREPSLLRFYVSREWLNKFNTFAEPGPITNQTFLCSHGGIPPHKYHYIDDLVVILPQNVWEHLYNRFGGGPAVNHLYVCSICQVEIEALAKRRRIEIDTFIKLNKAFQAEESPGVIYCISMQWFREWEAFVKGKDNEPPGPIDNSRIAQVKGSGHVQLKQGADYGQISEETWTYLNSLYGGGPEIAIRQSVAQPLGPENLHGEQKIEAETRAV

With Ac-AQSKTQLEVRPV-NH2 [ROBO1_(1495-1506) peptide] the Kd [1] was 82 µM and the Kd [2] was 14 µM.

In the case of Ac-SAVTYPDWIGQSYSEV-NH2 [ORAI1 48-63 peptide, unlabelled], the Kd [3] is reported as 207 µM.
